Assays:
[1] = target: Full length human SIRPα v1 with beta-gal fragment (ED) at its C-terminal, in K562 cells (human, UniProt P78324 31-504); test: cell-based or functional assay
[2] = target: T1, human SIRPα v1 on CHOK1 cells (human, UniProt P78324 31-504); test: FACS, CHOK1 cells stably expressing human SIRPα v1
T1 construct: whole, on cells; also called CHOK1-hSIRPα v1; cell surface human SIRPα v1
Source text: (§1) Binding activity of the purified chimeric antibodies against human SIRPα variants was detected by FACS assay using CHOK1 cells or 293F cells stably expressing human SIRPα v1 and CHOK1 cells stably expressing human SIRPα v2. […] EC₅₀ and top signal calculated using GraphPad Prism9.0.

[3] = target: T2, human SIRPα v2 on CHOK1 cells (human, UniProt P78324 31-504); test: FACS, CHOK1 cells stably expressing human SIRPα v2
T2 construct: whole, on cells; also called CHOK1-hSIRPα v2; cell surface human SIRPα v2
Source text: as §1

[4] = target: T3, human SIRPα v1 ECD recombinant protein (human, UniProt P78324 31-373); test: competitive ELISA, plate-coated human SIRPα v1 ECD; blocked ligand: mFc tagged human CD47 ECD
T3 construct: extracellular domain; Coated on the ELISA plate
Description: (§2) Competitive ELISA assay was used to determine whether the purified chimeric antibodies can block CD47 and SIRPα interaction. Briefly, antibody and mFc tagged human CD47 ECD recombinant protein were co-incubated with ELISA microplate coated human SIRPα v1 ECD or human SIRPα v2 ECD recombinant protein. The concentration of soluble ECD of CD47 is 25 nM, and the concentration of soluble ECD of SIRPα is 20 nM. After washing, HRP labeled anti-mouse Fc 2nd antibody (Sigma) was added and incubated at 37° C. for 1 hour. Then, 100 μl/well of TMB solution (Biotechnology) was added. After incubation for 15 minutes at room temperature, the reaction was stopped by the addition of 50 μl of 1N HCl. OD 450 nm was read. Blocking ratio was determined by blockade of human SIRPα ECD recombinant protein binding to ELISA microplate coated human CD47 ECD recombinant protein. All antibodies as tested can block interaction between human CD47 and different human SIRPα variants.

[5] = target: T4, human SIRPα v2 ECD recombinant protein (human); test: competitive ELISA, plate-coated human SIRPα v2 ECD; blocked ligand: mFc tagged human CD47 ECD
T4 construct: extracellular domain; Coated on the ELISA plate
Description: as §2

T2 sequence (P78324 other isoform, or with tags, fused parts or gaps limits assumed): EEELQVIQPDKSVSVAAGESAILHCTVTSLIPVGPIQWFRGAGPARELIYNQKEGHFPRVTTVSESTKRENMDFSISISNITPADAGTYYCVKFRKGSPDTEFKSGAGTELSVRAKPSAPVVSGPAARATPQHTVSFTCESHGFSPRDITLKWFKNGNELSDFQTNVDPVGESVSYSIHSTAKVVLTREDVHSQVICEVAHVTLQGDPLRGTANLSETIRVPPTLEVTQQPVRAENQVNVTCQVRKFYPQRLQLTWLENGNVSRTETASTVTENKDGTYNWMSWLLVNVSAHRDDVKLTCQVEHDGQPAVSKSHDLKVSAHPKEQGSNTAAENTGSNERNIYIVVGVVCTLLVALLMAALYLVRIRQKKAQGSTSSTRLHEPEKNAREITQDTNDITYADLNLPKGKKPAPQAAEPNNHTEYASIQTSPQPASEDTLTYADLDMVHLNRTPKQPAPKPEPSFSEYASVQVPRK
T3 sequence (P78324 31-373): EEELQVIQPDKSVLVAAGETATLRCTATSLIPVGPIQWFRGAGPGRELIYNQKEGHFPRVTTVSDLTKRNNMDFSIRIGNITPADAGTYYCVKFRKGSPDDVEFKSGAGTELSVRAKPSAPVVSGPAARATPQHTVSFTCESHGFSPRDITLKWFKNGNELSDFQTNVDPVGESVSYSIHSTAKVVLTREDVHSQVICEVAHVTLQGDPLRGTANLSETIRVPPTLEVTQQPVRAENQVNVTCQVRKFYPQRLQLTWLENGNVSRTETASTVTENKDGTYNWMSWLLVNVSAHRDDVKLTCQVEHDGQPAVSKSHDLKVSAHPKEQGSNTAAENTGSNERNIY
Full length human SIRPα v1 with beta-gal fragment (ED) at its C-terminal, in K562 cells, sequence (P78324 31-504): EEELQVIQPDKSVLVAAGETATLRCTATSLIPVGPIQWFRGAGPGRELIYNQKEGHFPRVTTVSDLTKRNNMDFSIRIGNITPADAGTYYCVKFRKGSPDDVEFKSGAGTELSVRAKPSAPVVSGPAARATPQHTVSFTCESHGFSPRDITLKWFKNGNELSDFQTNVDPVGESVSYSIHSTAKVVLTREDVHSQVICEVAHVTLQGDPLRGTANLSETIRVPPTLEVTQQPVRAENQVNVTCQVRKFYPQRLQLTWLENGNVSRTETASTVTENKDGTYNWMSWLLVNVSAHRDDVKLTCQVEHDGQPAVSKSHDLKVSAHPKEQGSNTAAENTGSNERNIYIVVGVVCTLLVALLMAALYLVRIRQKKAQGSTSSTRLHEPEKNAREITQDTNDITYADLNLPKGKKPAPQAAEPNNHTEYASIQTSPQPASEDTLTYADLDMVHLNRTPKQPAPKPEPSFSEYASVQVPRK
T1 sequence (P78324 31-504): as above

IC50 (SHP-1 recruitment blocking) [1] [nM]	TOP blocking (SHP-1 recruitment) [1] [%]	EC50 [2] [nM]	TOP MFI [2] [MFI]	EC50 [3] [nM]	TOP MFI [3] [MFI]	IC50 [4] [nM]	TOP blocking [4] [%]	IC50 [5] [nM]	TOP blocking [5] [%]	Binder
0.09	73.5	1.49	80000	1.58	50100	2.32	96.4	2.45	96.7	Anti-SIRPα antibody C15 (antibody, V domains shown, Mouse variable regions; tested as purified chimeric antibody; also called 015c) VH: EVQLQQSGVEVVQPGASVKLSCTASGFNIEAYYMHWVKQRTEQGLEWIGRIDPEDGESKYAPKFQGKATMTADTSSSTAYLQLSSLTSDDTAVYYCVRGSYEYWGQGTTLTVSS VL: QIVLTQSPAIMSASPGEKVTLTCSASSSVSSSYLYWYQQKPGSSPKLWIYSTSNLASGVPPRFSGSGSGTSYSLTISSMQAEDAASYFCYQWSSYPYTFGGGTKLEIK
0.07	66.9	1.45	69800	12	19600	2.63	97	54.1	84.4	Anti-SIRPα antibody C59 (antibody, V domains shown, Mouse variable regions; tested as purified chimeric antibody; also called 059c) VH: QVQLQQSGPELVKPGASVKMSCKASGYTFSEYVLSWVKQRTGQGLEWIGEIYPGTITTYYNEKFKGKATLTADKSSNTAYIQLTSLTSEDSAVYFCGRFYDYDGGWFAYWGQGTLLTVSA VL: ENVLTQSPEKMAVSLGQKVTMTCSASSSVSSSDLHWYQQKSGASPKPLIHGTSNLASGVPARFSGSGSGTSYSLTISSVEAEDAATYYCQQWSGYPWTFGGGTNLEIK

Reference: patent US20240336686A1 (ELPISCIENCE SUZHOU BIOPHARMA, published 2024)
